The Kd is a measure of binding affinity in units of concentration. A higher Kd goes with a looser complex. One may read the IC50 as the midpoint of a concentration-inhibition curve.

Assay [1] deals with HLA-A*02:03. Put plainly: IEDB peptide-MHC binding, purified MHC/competitive/fluorescence; filed as Kd, often an IC50 or EC50 that approximates it; ≥ and ≤ were set here for values at or beyond the usual limits of such assays.
Assay [2] concerns the target HLA-A*24:03. The assay is described as above.
The target in another assay is HLA-B*46:01. The description is as above.
The target in the next assay is HLA-B*15:17. Described as above.
The next assay has as its target HLA-B*57:01. The description is as above.
Another assay addresses HLA-B*18:01. The description is as above.
For assay [3], the target named is HLA-A*03:01. Described as above.
Assay [4] deals with HLA-A*02:12. Described as above.
Assay [5] deals with HLA-A*02:01. Described as above.
The next assay deals with HLA-B*27:03. The description is as above.
The target in a further assay is HLA-B*51:01. Described as above.
For a further assay, the target named is HLA-A*69:01. The assay is described as above.
The target of assay [6] is HLA-A*02:19. Described as above.
Assay [7] addresses HLA-A*02:16. The description is as above.
Another assay concerns the target HLA-A*26:01. The description is as above.
For assay [8], the target named is HLA-A*23:01. The description is as above.
Assay [9] deals with HLA-A*29:02. The description is as above.
For assay [10], the target named is HLA-A*02:03. Put plainly: IEDB peptide-MHC binding, purified MHC/direct/fluorescence; filed as Kd, often an IC50 or EC50 that approximates it; ≥ and ≤ were set here for values at or beyond the usual limits of such assays. To be noted: source organism: Zaire ebolavirus.
For assay [11], the target named is HLA-A*24:03. The assay is described as above. To be noted: source organism: Zaire ebolavirus.
Assay [12] has as its target HLA-A*02:11. The description is as above. Particulars: source organism: Zaire ebolavirus.
In assay [13] the target is HLA-B*07:02. Described as above. To be noted: source organism: Zaire ebolavirus.
Assay [14] addresses HLA-A*03:01. Described as above. To be noted: source organism: Zaire ebolavirus.
Assay [15] addresses HLA-A*02:12. Described as above. Particulars: source organism: Zaire ebolavirus.
In assay [16] the target is HLA-A*68:02. Described as above. Particulars: source organism: Zaire ebolavirus.
Assay [17] deals with HLA-A*02:19. The description is as above. To be noted: source organism: Zaire ebolavirus.
Assay [18] has as its target HLA-A*02:16. The assay is described as above. To be noted: source organism: Zaire ebolavirus.
The target of assay [19] is HLA-A*23:01. The description is as above. Particulars: source organism: Zaire ebolavirus.
In assay [20] the target is HLA-A*29:02. The description is as above. To be noted: source organism: Zaire ebolavirus.
The next assay concerns the target HLA-B*08:01. As to the kind of experiment: IEDB peptide-MHC binding, purified MHC/competitive/fluorescence; ≥ and ≤ were set here for values at or beyond the usual limits of such assays. To be noted: source organism: Zaire ebolavirus.
Assay [21] addresses HLA-B*07:02. The assay is described as above. Particulars: source organism: Zaire ebolavirus.
For assay [22], the target named is HLA-A*02:01. Described as above. To be noted: source organism: Zaire ebolavirus.
In the next assay the target is HLA-A*24:02. The description is as above. Particulars: source organism: Zaire ebolavirus.
In another assay the target is HLA-B*15:01. Put plainly: IEDB peptide-MHC binding, purified MHC/competitive/fluorescence; filed as Kd, often an IC50 or EC50 that approximates it; ≥ and ≤ were set here for values at or beyond the usual limits of such assays.
The target of the next assay is HLA-B*39:01. Described as above.
Assay [23] has as its target HLA-A*02:11. Described as above.
Another assay concerns the target HLA-A*31:01. The assay is described as above. Particulars: source organism: Escherichia coli E110019.
The target of assay [24] is HLA-A*68:02. The assay is described as above.
Where [25] appears, read: source organism: Zaire ebolavirus.
[26] abbreviates: source organism: Escherichia coli E110019.
Where [27] appears, read: source organism: Giardia lamblia ATCC 50803.

With SQLPPACPV, the Kd in the assay with HLA-A*02:03 [1] (source organism: Homo sapiens), with HLA-A*24:03 [2] (source organism: Homo sapiens), with HLA-B*46:01 (source organism: Homo sapiens), in the assay with HLA-B*15:17 (source organism: Homo sapiens), with HLA-B*57:01 (source organism: Homo sapiens) and in the assay with HLA-B*18:01 (source organism: Homo sapiens) was no less than 20 µM each time. The Kd is no less than 20 µM with HLA-A*03:01 [3] (source organism: Homo sapiens); 0.17 µM with HLA-A*02:12 [4] (source organism: Homo sapiens); 0.0306 µM with HLA-A*02:01 [5] (source organism: Homo sapiens); no less than 20 µM in the assay with HLA-B*27:03 (source organism: Homo sapiens); no less than 20 µM with HLA-B*51:01 (source organism: Homo sapiens); no less than 20 µM with HLA-A*69:01 (source organism: Homo sapiens). Further, the Kd with HLA-A*02:19 [6] (source organism: Homo sapiens), in the assay with HLA-A*02:16 [7] (source organism: Homo sapiens), with HLA-A*26:01 (source organism: Homo sapiens), in the assay with HLA-A*23:01 [8] (source organism: Homo sapiens) and with HLA-A*29:02 [9] (source organism: Homo sapiens) was no less than 20 µM each time.

As for APFARLLNL, the Kd is no less than 20 µM in the assay with HLA-A*02:03 [10]; no less than 20 µM in the assay with HLA-A*24:03 [11]; no less than 20 µM with HLA-A*02:11 [12]; 0.0218 µM with HLA-B*07:02 [13]; no less than 20 µM in the assay with HLA-A*03:01 [14]; no less than 20 µM with HLA-A*02:12 [15]. The Kd with HLA-A*68:02 [16], with HLA-A*02:19 [17], in the assay with HLA-A*02:16 [18], with HLA-A*23:01 [19], with HLA-A*29:02 [20] and with HLA-B*46:01 (setting [25]) was no less than 20 µM each time. Moreover, the Kd with HLA-B*15:17 (setting [25]), with HLA-B*57:01 (setting [25]), with HLA-B*15:01 (setting [25]), with HLA-B*18:01 (setting [25]), with HLA-B*39:01 (setting [25]) and with HLA-A*02:01 [5] (setting [25]) was no less than 20 µM in each case. For the same sequence, the Kd in the assay with HLA-B*27:03 (setting [25]), with HLA-B*51:01 (setting [25]), with HLA-A*69:01 (setting [25]) and with HLA-A*26:01 (setting [25]) was no less than 20 µM each time. For the same sequence, the IC50 in the assay with HLA-B*08:01 is 7.08 µM; in the assay with HLA-B*07:02 [21], 0.633 µM; with HLA-A*02:01 [22] it was no less than 161 µM; with HLA-A*24:02, 5.54 µM.

For the sequence RAFWGQVQK, the Kd with HLA-A*02:03 [1] (setting [26]), with HLA-A*24:03 [2] (setting [26]), in the assay with HLA-A*02:11 [23] (setting [26]), in the assay with HLA-B*46:01 (setting [26]), with HLA-B*57:01 (setting [26]) and with HLA-B*15:01 (setting [26]) was no less than 20 µM each time. The Kd with HLA-B*18:01 (setting [26]) is no less than 20 µM; with HLA-A*02:12 [4] (setting [26]) it was no less than 20 µM; in the assay with HLA-B*39:01 (setting [26]), no less than 20 µM; with HLA-A*02:01 [5] (setting [26]), no less than 20 µM; with HLA-A*31:01 it was 0.0027 µM; with HLA-B*51:01 (setting [26]) it was no less than 20 µM. Besides, the equilibrium dissociation constant (Kd) with HLA-A*69:01 (setting [26]), with HLA-A*68:02 [24] (setting [26]), with HLA-A*02:19 [6] (setting [26]), with HLA-A*02:16 [7] (setting [26]), with HLA-A*26:01 (setting [26]) and with HLA-A*23:01 [8] (setting [26]) was no less than 20 µM each time.

On to ALGGSCHTT, for which the Kd with HLA-A*02:03 [1] (setting [27]), with HLA-A*24:03 [2] (setting [27]), with HLA-A*02:11 [23] (setting [27]), in the assay with HLA-B*46:01 (setting [27]), in the assay with HLA-B*15:17 (setting [27]) and with HLA-B*57:01 (setting [27]) was no less than 20 µM each time. Also, the Kd in the assay with HLA-B*15:01 (setting [27]), in the assay with HLA-B*18:01 (setting [27]), in the assay with HLA-A*03:01 [3] (setting [27]), with HLA-A*02:12 [4] (setting [27]), in the assay with HLA-B*39:01 (setting [27]) and in the assay with HLA-A*02:01 [5] (setting [27]) was no less than 20 µM in each case. Moreover, the Kd was no less than 20 µM in the assay with HLA-B*27:03 (setting [27]); no less than 20 µM with HLA-B*51:01 (setting [27]); no less than 20 µM with HLA-A*69:01 (setting [27]); no less than 20 µM with HLA-A*68:02 [24] (setting [27]); 0.555 µM in the assay with HLA-A*02:19 [6] (setting [27]); no less than 20 µM in the assay with HLA-A*02:16 [7] (setting [27]). Besides, the Kd in the assay with HLA-A*26:01 (setting [27]) and with HLA-A*29:02 [9] (setting [27]) was no less than 20 µM in each case.

The values above are taken from the Immune Epitope Database (IEDB).
